Results published in USRE47223 (Genentech, dated 2019).
Residue numbers refer to the chain shown, from its start.

T1: 5-domain TAT10772 (human)
T1 construct: Recombinant portion of the extracellular domain, expressed in CHO cells; also called 5-mucin domain
T1 chain: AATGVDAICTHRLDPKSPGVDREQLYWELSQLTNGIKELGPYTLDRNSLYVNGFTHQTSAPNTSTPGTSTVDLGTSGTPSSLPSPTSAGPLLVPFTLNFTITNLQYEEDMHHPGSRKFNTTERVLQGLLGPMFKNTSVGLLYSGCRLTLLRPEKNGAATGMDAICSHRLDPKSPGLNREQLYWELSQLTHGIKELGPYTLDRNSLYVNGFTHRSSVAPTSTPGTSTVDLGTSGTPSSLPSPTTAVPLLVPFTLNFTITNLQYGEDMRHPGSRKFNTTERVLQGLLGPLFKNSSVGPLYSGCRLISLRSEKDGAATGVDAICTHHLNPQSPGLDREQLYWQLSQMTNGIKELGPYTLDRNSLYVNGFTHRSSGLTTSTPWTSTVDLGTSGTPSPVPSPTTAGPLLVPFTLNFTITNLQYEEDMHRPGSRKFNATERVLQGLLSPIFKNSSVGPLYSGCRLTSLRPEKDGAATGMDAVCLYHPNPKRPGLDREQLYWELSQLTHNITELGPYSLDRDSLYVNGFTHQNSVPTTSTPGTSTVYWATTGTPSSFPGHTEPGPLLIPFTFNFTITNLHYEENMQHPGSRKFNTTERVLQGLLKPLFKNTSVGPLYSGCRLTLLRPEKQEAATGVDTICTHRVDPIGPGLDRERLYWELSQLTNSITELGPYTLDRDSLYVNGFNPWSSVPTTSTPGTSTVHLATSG

B1: 3A5v1 (SEQ ID NO: 198) (antibody, V domains shown)
VH: EVQLVESGGGLVQPGGSLRLSCAASGYSITNDYAWNWVRQAPGKGLEWVGYINYSGYTTYNPSLKSRFTISRDTSKNTLYLQMNSLRAEDTAVYYCARWASGLDYWGQGTLVTVSS
VL: DIQMTQSPSSLSASVGDRVTITCKASDLIHNWLAWYQQKPGKAPKLLIYGATSLETGVPSRFSGSGSGTDFTLTISSLQPEDFATYYCQQYWTTPFTFGQGTKVEIKR
notes: Humanized IgG
B2: 3A5v3 (SEQ ID NO: 200) (antibody, V domains shown)
VH: B1 VH with L79F, D104S
VL: B1 VL
notes: Humanized IgG
B3: 3A5v8 (SEQ ID NO: 205) (antibody, V domains shown)
VH: B1 VH with A100T, Y105S
VL: B1 VL
notes: Humanized IgG
B4: 3A5.F-graft (SEQ ID NO: 13), IgG (antibody, V domains shown)
VH: B1 VH with T74N, L79F, A100D, S101G, D104T
VL: B1 VL
notes: IgG
B5: 3A5v2 (SEQ ID NO: 199) (antibody, V domains shown)
VH: B1 VH with L79F, D104S, Y105H
VL: B1 VL
notes: Humanized IgG
B6: 3A5 chimera (mu3A5-H; SEQ ID NO: 11) (antibody, V domains shown)
VH: DVQLQESGPGLVNPSQSLSLTCTVTGYSITNDYAWNWIRQFPGNKLEWMGYINYSGYTTYNPSLKSRISITRDTSKNQFFLHLNSVTTEDTATYYCARWDGGLTYWGQGTLVTVSA
VL: B1 VL
notes: IgG; also called chimeric 3A5; chimeric antibody
B7: 3A5v4b.54 (SEQ ID NO:209) (antibody, V domains shown)
VH: B1 VH with S55A, A100T
VL: B1 VL
B8: 3A5v1b 52 (SEQ ID NO: 206) (antibody, V domains shown)
VH: B1 VH with N53S
VL: B1 VL
notes: Humanized IgG, 3A5.v1 with the CDR-H2 glycosylation site removed at position 52
B9: 3A5v1b 54 (SEQ ID NO: 207) (antibody, V domains shown)
VH: B1 VH with S55A
VL: B1 VL
notes: Humanized IgG, 3A5.v1 with the CDR-H2 glycosylation site removed at position 54
B10: 3A5v4b 52 (SEQ ID NO: 208) (antibody, V domains shown)
VH: B1 VH with N53S, A100T
VL: B1 VL
notes: Humanized IgG, 3A5.v4 with the CDR-H2 glycosylation site removed at position 52
B11: 3A5v6 (SEQ ID NO: 203) (antibody, V domains shown)
VH: B1 VH with L79F, A100D, D104T
VL: B1 VL
notes: Humanized IgG
B12: 3A5v4 (SEQ ID NO: 201) (antibody, V domains shown)
VH: B1 VH with A100T
VL: B1 VL
notes: Humanized IgG
B13: 3A5v7 (SEQ ID NO: 204) (antibody, V domains shown)
VH: B1 VH with A100K, Y105S
VL: B1 VL
notes: Humanized IgG
B14: 3A5v5 (SEQ ID NO: 202) (antibody, V domains shown)
VH: B1 VH with L79F, A100D, S101A, D104T
VL: B1 VL
notes: Humanized IgG
B15: 3A5.L-graft (SEQ ID NO: 12), IgG (antibody, V domains shown)
VH: B1 VH with T74N, A100D, S101G, D104T
VL: B1 VL
notes: IgG
B16: murine 3A5 anti-TAT10772 antibody (antibody, V domains shown)
VH: B6 VH
VL: DIQMTQSSSFLSVSLGGRVTITCKASDLIHNWLAWYQQKPGNAPRLLISGATSLETGVPSRFSGSGSGNDYTLSIASLQTEDAATYYCQQYWTTPFTFGSGTKLEIK
notes: Murine monoclonal antibody from hybridoma; also called monoclonal antibody 3A5; monoclonal antibody 3A5.3

Molecular target: T1, 5-domain TAT10772
Experiment: Biacore SPR, 5′-domain TAT10772 over immobilized IgG

Kd | koff | kon | Binder
4.8 nM | 0.000178 s⁻¹ | 36900 M⁻¹ s⁻¹ | B1
3.6 nM | 0.00013 s⁻¹ | 36200 M⁻¹ s⁻¹ | B2
2.3 nM | 0.000127 s⁻¹ | 55100 M⁻¹ s⁻¹ | B3
10 nM | 0.000292 s⁻¹ | 28500 M⁻¹ s⁻¹ | B4
3.6 nM | 0.000121 s⁻¹ | 33400 M⁻¹ s⁻¹ | B5
2.7 nM | 0.000121 s⁻¹ | 44800 M⁻¹ s⁻¹ | B6

molecular target: T2, TAT10772 polypeptide (human); experiment: Scatchard analysis, IgG
T2 construct: Cell-surface TAT10772 on engineered PC3 cells (PC3/A5.3B2), OVCAR-3, OVCA-432, SK-OV-3 cells and tumor tissue; also called TAT10772 target polypeptide

binding result | Binder
binds | B7

molecular target: T2, TAT10772 polypeptide; experiment: Scatchard analysis, IgG; form of TAT10772 not stated

Kd | Binder
0.47 nM | B8
0.37 nM | B9
0.46 nM | B10
0.57 nM | B6

molecular target: T3, CA125, human TAT10772 shed antigen (human, UniProt Q8WXI7 1-14451, limits assumed); experiment: ELISA, IgG, CA125
T3 construct: domain: entire shed antigen; Bought reagent; also called CA125 polypeptide

Kd | Binder
0.6 nM | B1
4.4 nM | B11
0.3 nM | B12
1.2 nM | B13
0.5 nM | B2
0.4 nM | B3
51.4 nM | B4
8.2 nM | B14
0.8 nM | B5
0.3 nM | B6

Molecular target: T1, 5-domain TAT10772
Experiment: ELISA, IgG, 5′-domain TAT10772

Kd | Binder
3 nM | B1
5.7 nM | B11
2.4 nM | B12
3.3 nM | B13
1.6 nM | B2
2.6 nM | B3
90.3 nM | B4
10.2 nM | B14
3.7 nM | B5
2.3 nM | B6

molecular target: T2, TAT10772 polypeptide; experiment: ELISA on OVCAR-3 cells, IgG

Kd | Binder
0.5 nM | B1
0.6 nM | B11
0.8 nM | B12
7.1 nM | B15
0.8 nM | B13
0.2 nM | B2
0.5 nM | B3
0.6 nM | B4
0.6 nM | B14
0.7 nM | B5
0.3 nM | B6

molecular target: T2, TAT10772 polypeptide; experiment: Western blot, ELISA, FACS of TAT10772-expressing cells and/or immunohistochemistry

binding result | Binder
binds | B16
